For this assay, the target named is human Toll-like receptor 2 expressed on HEK-Blue hTLR2 cells (human) (UniProt O60603). Description: flow cytometry on cells. On the technique in general: Flow cytometry measures light scatter and fluorescence of single cells or particles in a stream.
UniProt O60603, sequence (O60603 21-784): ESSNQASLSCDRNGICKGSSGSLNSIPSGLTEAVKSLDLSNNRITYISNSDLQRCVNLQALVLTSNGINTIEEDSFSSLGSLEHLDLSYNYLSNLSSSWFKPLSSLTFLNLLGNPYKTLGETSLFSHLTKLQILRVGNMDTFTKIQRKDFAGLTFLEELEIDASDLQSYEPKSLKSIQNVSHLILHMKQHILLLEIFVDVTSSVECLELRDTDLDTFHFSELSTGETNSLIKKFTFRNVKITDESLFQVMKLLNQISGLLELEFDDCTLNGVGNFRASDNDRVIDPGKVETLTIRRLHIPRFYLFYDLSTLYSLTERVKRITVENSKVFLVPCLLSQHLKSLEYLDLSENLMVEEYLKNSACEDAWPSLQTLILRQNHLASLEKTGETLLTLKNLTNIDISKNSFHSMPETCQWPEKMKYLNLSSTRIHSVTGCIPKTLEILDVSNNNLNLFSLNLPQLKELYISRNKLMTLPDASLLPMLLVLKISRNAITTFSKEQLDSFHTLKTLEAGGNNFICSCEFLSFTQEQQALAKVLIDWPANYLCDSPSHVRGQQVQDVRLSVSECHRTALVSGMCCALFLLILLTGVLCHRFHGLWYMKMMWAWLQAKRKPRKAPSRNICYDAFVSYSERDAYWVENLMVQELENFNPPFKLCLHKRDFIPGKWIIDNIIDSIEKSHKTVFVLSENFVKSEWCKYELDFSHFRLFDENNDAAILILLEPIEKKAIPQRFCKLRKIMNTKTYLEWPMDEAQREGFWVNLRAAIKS

In turn, “fluorescently labelled recombinant ancillary pilin 1 (rAP1 labelled with Red Mega 485) (natural protein)” came in with a mean fluorescence intensity of 1490.
